The text below walks through data of patent publication US20030195337A1 (IMMUNEX, published 2003).

A value given as a limit tells only on which side of the number the result lay.

B1: ULBP3, full length, expressed on transfected CV-1 cells (ligand)
chain: DAHSLWYNFTIIHLPRHGQQWCEVQSQVDQKNFLSYDCGSDKVLSMGHLEEQLYATDAWGKQLEMLREVGQRLRLELADTELEDFTPSGPLTLQVRMSCECEADGYIRGSWQFSFDGRKFLLFDSNNRKWTVVHAGARRMKEKWEKDSGLTTFFKMVSMRDCKSWLRDFLMHRKKRLEPTAPPTMAPG
notes: Full length cDNA in pDC409, expressed on CV-1 cells
B2: ULBP4, full length, expressed on transfected CV-1 cells (ligand)
chain: HSLCFNFTIKSLSRPGQPWCEAQVFLNKNLFLQYNSDNNMVKPLGLLGKKVYATSTWGELTQTLGEVGRDLRMLLCDIKPQIKTSDPSTLQVEMFCQREAERCTGASWQFATNGEKSLLFDAMNMTWTVINHEASKIKETWKKDRGLEKYFRKLSKGDCDHWLREFLGHWEAMPEPTVSPVNASDIHWSSSSLPDRWIILGAFILLVLMGIVLICVWWQNGEWQAGLWPLRTS
notes: Full length cDNA in pDC409, expressed on CV-1 cells; The terminus was not determined for the cell-surface form itself
B3: murine NKG2D-Fc fusion protein (Fc fusion, UniProt O54709 90-232, looked up)
chain: FKETFQPVLCNKEVPVSSREGYCGPCPNNWICHRNNCYQFFNEEKTWNQSQASCLSQNSSLLKIYSKEEQDFLKLVKSYHWMGLVQIPANGSWQWEDGSSLSYNQLTLVEIPKGSCAVYGSSFKAYTEDCANLNTYICMKRAV
notes: extracellular domain; Soluble protein made in CV-1 cells; not shown: hinge and Fc region of a modified human IgG1 (Fc mutein of Baum et al. 1994)

The target of test [1] is human NK cells (primary, stimulated overnight with recombinant human IL-15) (human). The test can be described thus: flow cytometry; 1 ug protein on about one million IL-15 stimulated human NK cells, labeled anti-human IgG Fc; no protein control = 6.
The target in test [2] is ULBP4, full length, expressed on transfected CV-1 cells (human) (UniProt Q8TD07). The test can be described thus: flow cytometry; Fc fusion protein on CV-1 cells transfected with full length ULBP; +++ = more than two logs above background. (Flow cytometry measures light scatter and fluorescence of single cells or particles in a stream.)
In test [3] the target is ULBP3, full length, expressed on transfected CV-1 cells (human) (UniProt Q9BZM4). Described as above.
In test [4] the target is ULBP1, full length, expressed on transfected CV-1 cells (human) (UniProt Q9BZM6). Described as above.
In test [5] the target is ULBP2, full length, expressed on transfected CV-1 cells (human) (UniProt Q9BZM5). The test is described as above.
Sequence of ULBP2, full length, expressed on transfected CV-1 cells (human) (Q9BZM5 26-217 limits assumed): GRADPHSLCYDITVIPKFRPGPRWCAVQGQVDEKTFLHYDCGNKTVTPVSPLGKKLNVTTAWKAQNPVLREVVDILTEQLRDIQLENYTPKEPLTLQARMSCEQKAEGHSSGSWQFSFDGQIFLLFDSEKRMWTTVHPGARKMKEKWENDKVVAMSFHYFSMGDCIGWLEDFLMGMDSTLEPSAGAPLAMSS
The next test has as its target T1, UL16-Fc fusion protein (human cytomegalovirus (HCMV); human, UniProt P16757 27-184; P01857 99-330 = IgG part).
T1 construct: extracellular domain;domain: modified human IgG1 Fc region; Soluble fusion protein prepared as in Cosman et al. 2001
The test can be described thus: flow cytometry; Fc fusion protein on CV-1 cells transfected with full length ULBP, PE anti-human IgG Fc.

Test [6] concerns the target B1. The test is described as above.

T1 sequence (P16757 27-184, tags or fused parts left off): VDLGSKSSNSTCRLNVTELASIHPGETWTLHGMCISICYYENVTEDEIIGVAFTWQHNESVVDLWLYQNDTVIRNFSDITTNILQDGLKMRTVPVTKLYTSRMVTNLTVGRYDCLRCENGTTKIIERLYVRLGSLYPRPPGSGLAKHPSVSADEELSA

Turning to “ULBP1:Fc fusion protein (from UniProt Q9BZM6 26-216)”, the Mean fluorescence intensity in test [1] came to 35.

As to “human NKG2D-Fc fusion protein (from UniProt P26718 73-216; P01857 99-330)”, the fluorescence above background (flow cytometry) (logabovebackground) in test [2], in test [3], in test [4] and in test [5] was greater than 2 each time.

With B1, the binding result with UL16-Fc fusion protein is on record as “no binding”.

In the case of B2, the binding result in the test with UL16-Fc fusion protein is recorded as “no binding”.

As to B3, the binding result in test [6] is listed as “no binding”.
